assay: soluble on expression in E. coli; label from the status in PepcDB or PDB records

Sequence | soluble on expression in E. coli
MGSDKIHHHHHHMTRYQHLATLLAERIEQGLYRHGEKLPSVRSLSQEHGVSISTVQQAYQTLETMKLITPQPRSGYFVAQRKAQPPVPPMTRPVQRPVEITQWDQVLDMLEAHSDSSIVPLSKSTPDVEAPSLKPLWRELSRVVQHNLQTVLGYDLLAGQRVLREQIARLMLDSGSVVTADDIIITSGCHNSMSLALMAVCKPGDIVAVESPCYYGSMQMLRGMGVKVIEIPTDPETGISVEALELALEQWPIKGIILVPNCNNPLGFIMPDARKRAVLSLAQRHDIVIFEDDVYGELATEYPRPRTIHSWDIDGRVLLCSSFSKSIAPGLRVGWVAPGRYHDKLMHMKYAISSFNVPSTQMAAATFVLEGHYHRHIRRMRQIYQRNLALYTCWIREYFPCEICITRPKGGFLLWIELPEQVDMVCVARQLCRMKIQVAAGSIFSASGKYRNCLRINCALPLSETYREALKQIGEAVYRAME | not soluble
MGSDKIHHHHHHMLKIKTSNLRPGIKLGKDIYSYDSQLLLTSGSTITQEHLDSFARRNIEEVFILDESPRMKPERDFEDVYQDALEVVNSFMVGAMLGSPLDFQEIDKTVDLLREQAFDAIDLFRQMRLMKNKGEYLFTHSINVSLLCILIGRWLKCDRNTIRELGIAGLLHDLGKVFIENDILNKPGKLTDQEYEKIKKHTVLGYNFICQNPDMNLEVANAALMHHERVDGSGYPSGLKGQLNFYAAVVAVADVYDAITSAHSYADKRSPYSAAEILWQESFGKLDARITKVFYDKITNFYVGNKVLLSNKKEGIVIYVDPFQPTRPIVMVEDEFYNLALDRSITIRDIID | not soluble
MAHHHHHHMCSTNQKLACCSGDNVFDTKENENDSYPQMVNKQLPPKVLEPIVQNKIVEVPKEVYLEKIVEVPQIKTVERIVEQIRPVIKYKNVYKTKTVYVEKIKNVDRIIYQEKIVEVPQIKTVEKIVEVPVYVDRERIITAPRYMVVEKVIPVLKTTKKESVMEIPEVNCPNIDITQEVESKEEIQIEDLKENQTTSVVHEKDIQLLNDLNIQKMHSSATLNAEADQDTTADTIQNDNFCSTVSCKFLPMYDNFPKMQYSMCNGFPEREKRFSSINIYKSKEEGFPKIRISKTPQIIQRNCYCNYA | not soluble
MAHHHHHHMSTRTILTAGEAAEVLASVRYVLLDVDGVLWAGKHVLPNIPETLLYLRLREKQIRFLTNNASISRAGLVREFQRRGIQGVREGEVYNSGFAAALRLQSLFTANKSTGSGRPLVERNIFVIGEEGLHEELRRVLAPGYIAYGMELHDAEKCGGYDAHVVASAWKQRVLPAPLQSSATSCGIAATGHAAGGISISDLSPAAVVVGLDMHFNMLKLAYASLCLQERPAAQTAGTSSSTPTYFIATNEDPQIPVGEDFLLLPGAGGMVSALRTVSGRSPDFVCGKPHVDMAKVFFEAEGITDPQQCLMVGDRLTTDIAFGNAAGCKTMLVLSGAEKMDRVRQAERDGHVSLLPDFIAPSLAIFLPPA | soluble
MNCRLGCGACCIAPSISSVIPGMPNGKAAGERCVQLSDDNLCLIFGSPERPAVCCDFEASLDVCGHSNEEALWLITNLESQTS | soluble
MTLEWEEFLDPYIQAVGELKIKLRGIRKQYRKQNKHSPIEFVTGRVKPIESIKEKMARRGITYATLEHDLQDIAGLRVMVQFVDDVKEVVDILHKRQDMRIIQERDYITHRKASGYRSYHVVVEYTVDTINGAKTILAEIQIRTLAMNFWATIEHSLNYKYQGDFPDEIKKRLEITARIAHQLDEEMGEIRDDIQEAQALFDPLSRKLNDGVGNSDDTDEEYR | soluble
MGSDKIHHHHHHMIQPRIRQNPFETYEEVAEGFEDLLAPLELFFDREYQGHLDLGTHGTVYSKGTRDAEAFLRPLWGLGPYVTQNESEYLNDFLTGIIEGTDPESSSYWGKTKDYDQLIVEMAALSTFLLLNKEKTWDQLTKEQQNNLHSWLIQANENIIPPNNWHFFRVLLNLAMKHCEMPYSKEQIAVDLAVIDRFYVGNGWYYDGVETQVDYYVSFAIHYYSLLYCRFAPEDTARVAIMKERATLFAQEFKYWFTQPGEAIPFGRSLTYRFAQVSFFSALVFADVEALPWGEIKGLISRHLHQWMNKDIFTTDGLLSVGYDYQNMVFAEGYNGPGSPYWAFKTFILLAVPKDHPYWQAETQPISFPEKHLPSPESRNYYQVNDAGTHGLMFPAGQFINYQAHAHDKYSKFVYSSHFGFSTIKSDYWYYEGAYDNCLALAEDDHYFRTKGLDDQYEILDDRIIHQWHPWSDVAIKTTIVPLEGQHLRIHEIETQRALVAYEGGFSIPLFDEKVTCVSDQMAEVKNAKGVSKVENINGFSEAAIIRTEPNTNLLYPLTELPYLKANLSKGKHLLISLVTGVLPNEQIEPVKVRLKENQLLVEEKVVILGN | not soluble
MQVSRFLTSFHRLSTALPASTEKYYFETVKHDNRNEVVDFLNNNFRVEEPLSKAAGMTESDIQSCFDGVFERVLKNEVSILARSKQSDEIVGCMLNSVWKRNDPKKNEDEAEDFEFGGDRKGVMTIGEILNELHESFWKLRPDQHTVLHFEISSVNKNHQRQGLASKFMNWTEKKELLKVIEASSIVAEASSLANQILLSKRGYETVASTLLSSRIDVNGKQILVCDDGTDRVDLVFKELN | not soluble
MSLTTELVDWTHEQKCRKAVASLEKNGFTAVYCGTGQEALEYIVAEAAEAESVGFGGSMSVDDLKVIERIREMGKELLIHGAPGLSLEERVTIMRRQLTCDLFLAGTNALTLSGWLVNIDATGNRVGSMFFGPRKVIVVAGRNKIVDGGVQEAIDRIKEWASPPNARRLNYKTPCGTTGFCSDCNSPDRICRITTVIDRKPRLTDLRVLVVNEEMGFLEHHHHHH | soluble
GPGSMATGTSPPSLVTVPLLRAALLLRWRLLSLQFDGDSNMCVLAEDAADGLPRGTRLEMYGSNVQLVRQLSGAGEALLQPSVIGEVTATLEGALTDDTTERRGRQIVAVLSPPHLSSSLGGPEFKGNEDVEVIAQWTLSRKRVENVQRVTDTTKRDGVKNEEPPPLMENGIVFPSPRFAGLRVLRAARHSFALLLENELRERTGESEVGKVGPLAVLDVSELDCTFSRVAVQMAVERGLVLEQHMHVNFVPLTPAATATADETVRSLLRLVAHPTRGAHLDPLRPLQARCFKLGCCTFCSKGRGSAANEGSKKDEASLVSRLAGVISKIHSNGTLLVNLVGDGINHEELRQGAEMHLVEALLRADRCGVVIDEVLPAADTRGTAISFVVSLC | not soluble
MAKLSGSIDVPLPPEEAWMHASDLTRYREWLTIHKVWRSKLPEVLEKGTVVESYVEVKGMPNRIKWTIVRYKPPEGMTLNGDGVGGVKVKLIAKVAPKEHGSVVSFDVHLGGPALLGPIGMIVAAALRADIRESLQNFVTVFAG | soluble
MASQGFSVYVGNVPYQGTEEEIGNYFAAVGHVNNVRIVYDRETGRPRGFAFVEFSEEAGAQRAVEQLNGVAFNGRNLRVNYANK | soluble
MGSDKIHHHHHHMSGETFEFNIRHSGKVYPITLSTDATSADLKSKAEELTQVPSARQKYMVKGGLSGEESIKIYPLIKPGSTVMLLGTPDANLISKPAKKNNFIEDLAPEQQVQQFAQLPVGFKNMGNTCYLNATLQALYRVNDLRDMILNYNPSQGVSNSGAQDEEIHKQIVIEMKRCFENLQNKSFKSVLPIVLLNTLRKCYPQFAERDSQGGFYKQQDAEELFTQLFHSMSIVFGDKFSEDFRIQFKTTIKDTANDNDITVKENESDSKLQCHISGTTNFMRNGLLEGLNEKIEKRSDLTGANSIYSVEKKISRLPKFLTVQYVRFFWKRSTNKKSKILRKVVFPFQLDVADMLTPEYAAEKVKVRDELRKVEKEKNEKEREIKRRKFDPSSSENVMTPREQYETQVALNESEKDQWLEEYKKHFPPNLEKGENPSCVYNLIGVITHQGANSESGHYQAFIRDELDENKWYKFNDDKVSVVEKEKIESLAGGGESDSALILMYKGFGL | not soluble
MAHHHHHHMTNLNVESGYFNDELKEEANEANFMYTNISMLIRAHRKDRNKLTLQNKKLNLIKIVGFVLAIEEKKEFIVYTVDDSTGYIKAKLLLTYSYSACNDKNEDIKVDDMVQIFGICNTVSINEDLTISISSINKVNSLNHLCHHHLLVFHNYLKFLETQKKNLALEDERAKNEEDEIAPHVPTNDNPFFNSFFY | not soluble
MGSDKIHHHHHHMFTRRFIPVVQSTKQNIGKYVRKDARFTLLTYNMLSPSYMWPQVYTYVAEPYKNWSYRHRLLEKELLNTFKADIMCLQEMTARDYEDYWHDSIGVDVNYGSKFISKTPPKYWKKPVKDMDGVSIFYNLAKFDFISSSGIYLNQLLNVFNQRELKYLYNKKVTLTDGASNVIGEDSLLDVLKGKNQVCLFVSLRHKETGTIFVVLNTHLYWKYDEVKLTQCMIIMRELSKIIKQLLPGDVKGQERVKILFTGDLNSTRDSLVVNFLQGQIVSHGDLNLINPMRPYLDRCVYDDIPKDYFVHTCYSGKLKGIFDYVWYHDSDFLLTKILTGNEVSDELLASNQLGLPNENHPSDHIPLLTEFKIL | not soluble
MTYQDRSGATAVVQSSYQLVLLTPAAIHGADPREKAEFRLSSLRGVWRYWWRTLQDEPDPEKLLAKEEEWFGGTRKMKQQSPIHLSMAGVMEGTKKENILPHRTSPTLVPALPAGGEVTVTLSVRKRHQERLAQYDWYFQYVLHLASFGQRSRRGFGAVQWIGHQWSNVGEYVESLRMVLEHIGVAGAFSFAERDCLVARRGDIQTQHPVLSAVWIGEGKESAAEVVKAFGKASHEANRYGSLGYMRGKAGKLSSTLWCTVRKIGNWYYPIVTEVRNHDPHYSEPRYEQDRNRFLEIVGVRI | not soluble
MSKRQSSLMSFFTKTPKSEKPEEEVKEKSVEEPKSLKNDTPKISNDSEKKVLKRSNSKTVSSPVKTPRNASKRPKVVVCSSSEGEDDDGDEDFEMKEAEEHESSDESEADENASDCEVVESPESTPQSTPKRGGKKKISKPLLAENTPKSVKMAGKSKKVIPDGEAVSMAGVLDKMDKIMDGEGERKRIVEKTTGAKNKAVELEPAERFDHESFDFLKPDKIRDGFKRPMSDPEYDPKTLWVPPDFHQKQTPGHRQWWTMKSQHFDTILLFKVGKFYETYHMDAVEVVRALNIAFMRGSYAHAGFPEHAASKFADQLMNHGYKVARIEQTETPQMLEERNQKTKTKEKVVRREVCRVTSNGTRTYGVLDGVDLGSASSTLDPTAKHLLAIKEFHNPETGKSSYGVCMIDTTTAHIRIGQFEDDDYRSQLRTLLANVIVVQAIVERGSISSTTKSIINGILFSVPVEHLLPKKQFMTAEDVVRIVSNEDYYGSDASEWPEVLKGMLEDSSILPKPSTDWQLALSAFGAIFWYLRDSLIDVDMLSMRNVTIYNSNSMENDQKKEKIDWNGKNLILDGTALENLNIVPNGRDSHLTSLYYVINKCSTPFGRRLLRSWLLQPTCDPKKLEQRQKAIKWLVSPDASSFMTTATATLKKIPDLDRLLQKIHTIGLKYRSEKHPDSRAIFFDTIKTNQKKIAELLAAIDGFKLCNKLRKEYIKVQKEGEGCELLDELLGNEQEMEEVDENIYFFEKMFDRSTAMKDGKIVPNAGCDEEYDEALNRVKEALNELNDYKDSVAKKYSCSIKFVDSGKVKYLLEMPENTKVSSSFELKSRRKGFIRYSTPDSEQLVAALDAVEKEKSKLGDDATRRVFEQFGHKNPIWLETVKLVSSFDVLTSLALFAKSSPFEMCMPEFDFNATDPYLIVDKGVHPCLALQSRNEVTQTTSFIANSTTMGASEAAVMLLTGPNMGGKSTLMRQTAVLAILAHIGSMVPAFSMRLTPIDRIFTRIGANDRIMCGESTFFIELKETDIMLKNATKHSLLLVDELGRGTSTFDGTAIASAVLQKISDDLACRTFFSTHYHSICDSFTNHPNVRLAHMKCVVDKENNEDPTMEDVTFLYELESGICPKSYGFYAAKLAGIDHQVVRNAYLESNKFASNLIIDPKIRHLVECARDDNFDVGELKRMIEAI | not soluble

Source: the DeepSol protein solubility set
